The target in test [1] is T1, human GARP-proTGFβ1 complex (human, UniProt Q14392 20-627; P01137 30-390).
T1 construct: also called hGARP-proTGFβ1; hGARP
The test is described as follows: MSD-SET, solution equilibrium titration. The procedure: (§1) MSD-SET assays were performed to measure affinities of the antibodies at equilibrium. Briefly, each test antibody was diluted 3-5 fold and samples were mixed with biotinylated antigen in a 48-well dish. The SET samples were equilibrated for 20-24 hours at room temperature. Meanwhile, a capture plate was coated with IgG (20 nM) and incubated overnight at 4° C. or 30 minutes at room temperature, followed by a blocking step with 5% BSA. After the capture plate was washed three times, SET samples were added and incubated for 150 seconds. The plate was washed once to remove unbound complexes. 250 ng/ml SA-Sulfotag was added then washed 3 times. 2× Read Buffer was added, and signals from the labeled bound complexes were read with the use of QuickPlex™ SQ 120 instrument.

Test [2] deals with T2, human LTBP1-proTGFβ1 complex (human, UniProt Q14766 873-1507).
T2 construct: range 873-1507; biotinylated in Octet and MSD-SET; also called hLTBP1-proTGFβ1; hLTBP1
As to the kind of experiment: MSD-SET, solution equilibrium titration. Here is the method:
as §1

Test [3] addresses T3, human LRRC33-proTGFβ1 complex (human, UniProt Q86YC3 19-650; P01137 30-390).
T3 construct: also called hLRRC33-proTGFβ1; hLRRC33
The test is described as follows: MSD-SET, solution equilibrium titration. Here is the method: as §1

Test [4] concerns the target T4, human LTBP3-proTGFβ1 complex (human, UniProt Q9NS15 866-1039).
T4 construct: range 866-1039; also called hLTBP3-proTGFβ1; hLTBP3
The test is described as follows: MSD-SET, solution equilibrium titration. The procedure: as §1

Test [5] has as its target T1, human GARP-proTGFβ1 complex. The test is described as follows: BLI (Octet). (In general: BLI is a label-free optical method that tracks binding on a fibre tip over time.)
For test [6], the target named is T2, human LTBP1-proTGFβ1 complex. The test is described as follows: BLI (Octet).
The target in test [7] is T3, human LRRC33-proTGFβ1 complex. The test is described as follows: BLI (Octet).
Test [8] has as its target T4, human LTBP3-proTGFβ1 complex. As to the kind of experiment: BLI (Octet).
Test [9] deals with hGARP-proTGFβ1 complex on cells (human, UniProt Q14392 20-662; P01137 30-390). As to the kind of experiment: cell-based or functional assay.
For test [10], the target named is hLTBP3-proTGFβ1 complex made by transfected cells (cell-based potency assay) (human, UniProt Q9NS15 44-1303; P01137 30-390). As to the kind of experiment: cell-based or functional assay.
hLTBP3-proTGFβ1 complex made by transfected cells (cell-based potency assay), sequence (Q9NS15 44-1303, chain 1 of 2): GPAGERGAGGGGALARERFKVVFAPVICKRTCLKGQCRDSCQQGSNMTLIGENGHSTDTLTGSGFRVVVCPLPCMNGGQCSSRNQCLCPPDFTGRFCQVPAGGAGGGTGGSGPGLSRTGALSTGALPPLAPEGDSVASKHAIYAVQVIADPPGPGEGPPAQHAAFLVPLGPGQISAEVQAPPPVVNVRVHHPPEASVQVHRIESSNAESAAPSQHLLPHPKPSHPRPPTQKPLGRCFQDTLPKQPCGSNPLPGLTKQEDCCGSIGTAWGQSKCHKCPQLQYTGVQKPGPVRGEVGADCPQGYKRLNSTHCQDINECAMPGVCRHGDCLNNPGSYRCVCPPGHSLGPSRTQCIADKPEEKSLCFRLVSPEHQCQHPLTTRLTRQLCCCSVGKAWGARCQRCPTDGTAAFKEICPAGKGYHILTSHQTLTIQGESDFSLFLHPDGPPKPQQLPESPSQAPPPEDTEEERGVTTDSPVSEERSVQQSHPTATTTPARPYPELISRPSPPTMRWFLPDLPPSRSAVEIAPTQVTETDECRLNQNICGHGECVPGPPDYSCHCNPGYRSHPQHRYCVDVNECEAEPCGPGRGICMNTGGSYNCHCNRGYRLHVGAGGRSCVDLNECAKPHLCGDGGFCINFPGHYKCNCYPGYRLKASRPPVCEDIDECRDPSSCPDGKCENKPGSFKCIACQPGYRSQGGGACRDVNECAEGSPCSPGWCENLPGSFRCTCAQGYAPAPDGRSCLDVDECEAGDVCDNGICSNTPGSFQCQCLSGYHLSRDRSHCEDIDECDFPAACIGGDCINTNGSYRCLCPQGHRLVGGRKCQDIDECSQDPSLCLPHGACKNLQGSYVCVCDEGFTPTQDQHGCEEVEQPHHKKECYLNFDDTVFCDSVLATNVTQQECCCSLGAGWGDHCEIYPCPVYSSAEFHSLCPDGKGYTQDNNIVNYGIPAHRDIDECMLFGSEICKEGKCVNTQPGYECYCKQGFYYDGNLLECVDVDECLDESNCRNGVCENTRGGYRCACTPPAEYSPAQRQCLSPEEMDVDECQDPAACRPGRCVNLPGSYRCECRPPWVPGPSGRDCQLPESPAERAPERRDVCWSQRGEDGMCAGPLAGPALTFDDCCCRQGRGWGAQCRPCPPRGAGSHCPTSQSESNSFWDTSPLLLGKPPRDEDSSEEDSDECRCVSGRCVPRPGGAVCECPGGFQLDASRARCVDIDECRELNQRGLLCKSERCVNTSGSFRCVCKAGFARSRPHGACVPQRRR
hLTBP3-proTGFβ1 complex made by transfected cells (cell-based potency assay), sequence (P01137 30-390, chain 2 of 2): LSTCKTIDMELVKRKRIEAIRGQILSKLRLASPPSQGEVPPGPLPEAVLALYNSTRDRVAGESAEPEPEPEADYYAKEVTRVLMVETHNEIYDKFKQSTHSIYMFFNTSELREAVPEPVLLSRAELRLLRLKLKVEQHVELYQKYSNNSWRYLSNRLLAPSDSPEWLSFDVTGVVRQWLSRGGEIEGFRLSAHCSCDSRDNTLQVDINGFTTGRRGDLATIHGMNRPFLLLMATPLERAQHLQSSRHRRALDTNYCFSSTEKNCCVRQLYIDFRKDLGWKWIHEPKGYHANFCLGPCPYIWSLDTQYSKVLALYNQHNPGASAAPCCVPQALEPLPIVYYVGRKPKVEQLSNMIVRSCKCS
Test [11] addresses hLTBP1-proTGFβ1 complex made by transfected cells (cell-based potency assay) (human, UniProt Q14766 347-1721; P01137 30-390). As to the kind of experiment: cell-based or functional assay.
In test [12] the target is hLRRC33-proTGFβ1 complex on cells (human, UniProt Q86YC3 19-692; P01137 30-390). As to the kind of experiment: cell-based or functional assay.
hLRRC33-proTGFβ1 complex on cells, sequence (Q86YC3 19-692 limits assumed, chain 1 of 2): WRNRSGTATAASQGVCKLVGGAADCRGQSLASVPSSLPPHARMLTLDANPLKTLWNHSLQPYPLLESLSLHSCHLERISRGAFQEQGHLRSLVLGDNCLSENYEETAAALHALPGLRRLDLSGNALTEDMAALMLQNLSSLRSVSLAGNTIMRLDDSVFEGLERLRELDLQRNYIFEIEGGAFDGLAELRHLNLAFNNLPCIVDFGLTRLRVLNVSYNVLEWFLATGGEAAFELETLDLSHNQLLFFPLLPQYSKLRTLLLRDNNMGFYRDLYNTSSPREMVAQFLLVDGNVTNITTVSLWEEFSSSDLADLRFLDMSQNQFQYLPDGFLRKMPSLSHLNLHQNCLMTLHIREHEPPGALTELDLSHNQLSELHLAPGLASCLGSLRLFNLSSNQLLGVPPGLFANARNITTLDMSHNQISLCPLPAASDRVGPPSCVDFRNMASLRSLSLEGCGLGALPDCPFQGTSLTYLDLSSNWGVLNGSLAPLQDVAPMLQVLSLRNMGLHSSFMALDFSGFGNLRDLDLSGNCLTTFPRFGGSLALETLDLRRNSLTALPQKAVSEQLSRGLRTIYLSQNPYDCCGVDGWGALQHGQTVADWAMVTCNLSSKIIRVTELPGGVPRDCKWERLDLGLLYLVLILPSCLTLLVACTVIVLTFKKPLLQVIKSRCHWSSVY
hLRRC33-proTGFβ1 complex on cells, sequence (P01137 30-390 limits assumed, chain 2 of 2): as the sequence (P01137 30-390, chain 2 of 2) above

What is called Kd is the free concentration of one partner at which half of the binding sites on the other are occupied at equilibrium, for simple one-to-one binding. A low value points to tighter binding.

T3 sequence (Q86YC3 other isoform, or with tags, fused parts or gaps limits assumed, chain 1 of 2): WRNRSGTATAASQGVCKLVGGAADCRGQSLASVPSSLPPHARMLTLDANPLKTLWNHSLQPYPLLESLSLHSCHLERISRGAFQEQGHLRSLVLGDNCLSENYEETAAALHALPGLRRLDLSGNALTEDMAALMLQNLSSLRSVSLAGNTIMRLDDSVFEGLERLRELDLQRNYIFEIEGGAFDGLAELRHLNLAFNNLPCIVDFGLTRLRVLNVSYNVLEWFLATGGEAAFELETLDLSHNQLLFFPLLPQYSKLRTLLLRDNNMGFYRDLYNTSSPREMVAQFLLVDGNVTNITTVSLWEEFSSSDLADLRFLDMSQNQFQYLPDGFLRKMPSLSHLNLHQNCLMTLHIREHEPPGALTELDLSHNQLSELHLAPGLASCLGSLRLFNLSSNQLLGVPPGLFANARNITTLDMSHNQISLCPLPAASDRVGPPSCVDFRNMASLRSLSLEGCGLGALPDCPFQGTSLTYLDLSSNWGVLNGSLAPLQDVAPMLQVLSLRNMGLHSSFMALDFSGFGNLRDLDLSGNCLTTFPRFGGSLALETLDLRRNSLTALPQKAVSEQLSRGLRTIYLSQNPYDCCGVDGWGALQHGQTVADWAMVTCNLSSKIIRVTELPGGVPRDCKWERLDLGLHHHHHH
T3 sequence (P01137 30-390 limits assumed, chain 2 of 2): as the sequence (P01137 30-390, chain 2 of 2) above
hLTBP1-proTGFβ1 complex made by transfected cells (cell-based potency assay), sequence (Q14766 347-1721, chain 1 of 2): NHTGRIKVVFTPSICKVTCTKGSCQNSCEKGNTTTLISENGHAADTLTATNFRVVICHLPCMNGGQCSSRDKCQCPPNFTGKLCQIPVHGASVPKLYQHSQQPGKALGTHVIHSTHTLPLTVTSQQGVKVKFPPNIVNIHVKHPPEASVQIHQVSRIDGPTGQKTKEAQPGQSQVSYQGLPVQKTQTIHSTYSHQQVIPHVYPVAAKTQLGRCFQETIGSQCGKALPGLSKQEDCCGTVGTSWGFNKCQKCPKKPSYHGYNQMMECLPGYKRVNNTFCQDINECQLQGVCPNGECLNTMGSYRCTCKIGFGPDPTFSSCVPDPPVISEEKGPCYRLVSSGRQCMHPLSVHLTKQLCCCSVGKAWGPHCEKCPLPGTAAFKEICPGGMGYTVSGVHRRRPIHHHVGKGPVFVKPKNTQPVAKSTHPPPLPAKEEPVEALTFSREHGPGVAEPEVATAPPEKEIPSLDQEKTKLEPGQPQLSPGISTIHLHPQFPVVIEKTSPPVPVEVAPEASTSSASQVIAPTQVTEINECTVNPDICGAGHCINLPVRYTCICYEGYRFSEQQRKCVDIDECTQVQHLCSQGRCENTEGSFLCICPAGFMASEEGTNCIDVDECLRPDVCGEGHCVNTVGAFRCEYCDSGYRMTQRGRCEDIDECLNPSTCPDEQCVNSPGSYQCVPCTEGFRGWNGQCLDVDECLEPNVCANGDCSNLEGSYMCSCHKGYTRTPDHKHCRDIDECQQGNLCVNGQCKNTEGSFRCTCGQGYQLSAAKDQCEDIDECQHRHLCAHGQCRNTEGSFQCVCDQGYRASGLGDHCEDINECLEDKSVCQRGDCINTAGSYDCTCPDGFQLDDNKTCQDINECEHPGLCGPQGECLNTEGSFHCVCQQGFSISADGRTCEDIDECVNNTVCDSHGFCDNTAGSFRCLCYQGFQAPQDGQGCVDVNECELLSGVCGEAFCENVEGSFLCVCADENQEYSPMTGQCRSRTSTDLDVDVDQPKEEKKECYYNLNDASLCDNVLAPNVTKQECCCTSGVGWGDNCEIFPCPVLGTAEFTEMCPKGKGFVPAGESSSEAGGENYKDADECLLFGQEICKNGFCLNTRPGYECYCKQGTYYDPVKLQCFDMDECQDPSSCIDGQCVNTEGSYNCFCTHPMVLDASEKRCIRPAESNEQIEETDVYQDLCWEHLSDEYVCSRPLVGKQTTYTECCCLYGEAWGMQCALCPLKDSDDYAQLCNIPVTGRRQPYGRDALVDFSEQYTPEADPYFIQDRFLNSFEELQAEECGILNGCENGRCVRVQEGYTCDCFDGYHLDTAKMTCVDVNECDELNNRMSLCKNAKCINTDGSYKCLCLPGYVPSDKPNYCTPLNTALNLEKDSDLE
hLTBP1-proTGFβ1 complex made by transfected cells (cell-based potency assay), sequence (P01137 30-390, chain 2 of 2): as the sequence (P01137 30-390, chain 2 of 2) above
T4 sequence (Q9NS15 866-1039 limits assumed, chain 1 of 2): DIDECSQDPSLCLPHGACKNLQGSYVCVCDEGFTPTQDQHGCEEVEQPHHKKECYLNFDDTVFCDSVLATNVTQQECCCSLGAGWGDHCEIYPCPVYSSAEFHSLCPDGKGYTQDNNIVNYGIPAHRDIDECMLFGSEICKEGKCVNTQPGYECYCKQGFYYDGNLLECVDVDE
T4 sequence (chain, as listed by the source limits assumed, chain 2 of 2): as the sequence (P01137 30-390, chain 2 of 2) above

B1: Ab22 (antibody, IgG4, V domains shown)
VH: EVQLVESGGGLVQPGGSLRLSCAASGFTFGSFSMNWVRQAPGKGLEWVSYIHSDASTIYYADSVKGRFTISRDNAKNSLYLQMNSLRAEDTAVYYCARGVLDYGDMLDPWGQGTLVTVSS
VL: DIQMTQSPSSLSASVGDRVTITCQASQDITNYLNWYQQKPGKAPKLLIYDASNLETGVPSRFSGSGSGTDFTFTISSLQPEDIATYYCQQADNHPPWTFGGGTKVEIK
For the molecule B1, the Kd in test [1] worked out at 0.027 nM; in test [2] it was 0.05 nM; in test [3] it was 0.2 nM; in test [4], 0.033 nM; in test [5] it was 0.974 nM; in test [6], 0.318 nM. In addition, the Kd stood at 0.415 nM in test [7] and 0.329 nM in test [8].

B2: Ab25 (antibody, V domains shown)
VH: EVQLVESGGGLVQPGGSLRLSCAASGFTFGSFSMDWVRQAPGKGLEWVSYISPDASTIYYADSVKGRFTISRDNAKNSLYLQMNSLRAEDTAVYYCARGVLDYGDMLDPWGQGTLVTVSS
VL: DIQMTQSPSSLSASVGDRVTITCQASQDITNYLNWYQQKPGKAPKLLIYDASNLETGVPSRFSGSGSGTDFTFTISSLQPEDIATYYCQQADNHPPWTFGGGTKVEIK
With B2, the “IC50, reporter cell assay of TGFβ1 activation” value (“IC50, reporter cell assay” for short) in test [9] is 0.442 nM; in [10], 0.538 nM; in test [11] it was 6.08 nM; in [12] it was 0.653 nM. The Kd in test [5] turned out to be 0.488 nM; in test [6], 0.217 nM; in [7], 0.409 nM; in test [8] it was 0.152 nM.

B3: Ab23 (antibody, V domains shown)
VH: EVQLVESGGGLVQPGGSLRLSCAASGFTFSSFSMNWVRQAPGKGLEWVSYISPSADTIYYADSVKGRFTISRDNAKNTLYLQMNSLRAEDTAVYYCARGVLDYGDMLDPWGQGTLVTVSS
VL: DIQMTQSPSSLSASVGDRVTITCQASQDITNYLNWYQQKPGKAPKLLIYDASNLETGVPSRFSGSGSGTDFTFTISSLQPEDIATYYCQQADNHPPWTFGGGTKVEIK
For the molecule B3, the “IC50, reporter cell assay” value in [9] was determined as 0.264 nM; in test [10] it was 0.879 nM; in [11], 0.835 nM; in [12] it was 0.579 nM. Further, the Kd was found to be 1.34 nM in test [5], 0.417 nM in [6], 0.455 nM in [7] and 0.468 nM in test [8].

B4: Ab30 (antibody, IgG4, V domains shown)
VH: EVQLVESGGGLVQPGGSLRLSCAASGFTFSSFSMDWVRQAPGKGLEWVSYISPDASTIYYADSVKGRFTISRDNAKNSLYLQMNSLRAEDTAVYYCARGTLDYGDMLDPWGQGTLVTVSS
VL: DIQMTQSPSSLSASVGDRVTITCQASQDITNYLNWYQQKPGKAPKLLIYDASNLETGVPSRFSGSGSGTDFTFTISSLQPEDIATYYCQQADNHPPWTFGGGTKVEIK
On to B4, for which the Kd in [1] stood at 0.022 nM; in [2] it was 0.031 nM; in [3], 0.14 nM; in test [4] it was 0.026 nM; in test [5] it was 0.833 nM; in test [6] it was 0.332 nM. Besides, the results for the dissociation constant Kd in test [7] and in test [8] were 0.535 nM and 0.261 nM, respectively.

B5: Ab24 (antibody, IgG4, V domains shown)
VH: EVQLVESGGGLVQPGRSLRLSCAASGFTFSSFAMYWVRQAPGKGLEWVSYISPDASTIYYADSVKGRFTISRDNAKNSLYLQMNSLRAEDTAVYYCARGVLDYGDMLDPWGQGTLVTVSS
VL: DIQMTQSPSSLSASVGDRVTITCQASQDITNYLNWYQQKPGKAPKLLIYDASNLETGVPSRFSGSGSGTDFTFTISSLQPEDIATYYCQQADNHPPWTFGGGTKVEIK
In the case of B5, the Kd is 0.019 nM in test [1]; 0.024 nM in test [2]; 0.18 nM in [3]; 0.021 nM in test [4]; 0.665 nM in [5]; 0.246 nM in test [6]. Further, the Kd in [7] stood at 0.41 nM; in test [8], 0.198 nM.

B6: Ab32 (antibody, IgG4, V domains shown)
VH: EVQLVESGGGLVQPGGSLRLSCAASGFTFSSFSMNWVRQAPGKGLEWVSYISPSADTIYYADSVKGRFTISRDNAKNTLYLQMNSLRAEDTAVYYCARGVWDMGDMLDPWGQGTLVTVSS
VL: DIQMTQSPSSLSASVGDRVTITCQASQDITNYLNWYQQKPGKAPKLLIYDASNLETGVPSRFSGSGSGTDFTFTISSLQPEDIATYYCQQADNHPPWTFGGGTKVEIK
As to B6, the Kd in [1] was determined as 0.015 nM; in test [2], 0.037 nM; in test [3] it was 0.087 nM; in test [4], 0.026 nM; in test [5], 0.496 nM; in test [6], 0.269 nM. Moreover, the Kd in test [7] came out at 0.698 nM; in test [8], 0.215 nM.

B7: Ab33 (antibody, IgG4, V domains shown)
VH: EVQLVESGGGLVQPGGSLRLSCAASGFTFSSFSMNWVRQAPGKGLEWVSYISPSADTIYYADSVKGRFTISRDNAKNTLYLQMNSLRAEDTAVYYCAHGVLDYGDMLDPWGQGTLVTVSS
VL: DIQMTQSPSSLSASVGDRVTITCQASQDITNYLNWYQQKPGKAPKLLIYDASNLETGVPSRFSGSGSGTDFTFTISSLQPEDIATYYCQQADNHPPWTFGGGTKVEIK
B7: the Kd in [1] turned out to be 0.0078 nM; in test [2], 0.011 nM; in [3], 0.046 nM; in test [4], 0.007 nM; in test [5], 0.265 nM; in test [6], 0.179 nM. For the same molecule, the Kd was 0.339 nM in test [7] and 0.111 nM in test [8]. Also, the “IC50, reporter cell assay” value stood at 0.198 nM in test [9], 1.11 nM in test [10], 1.56 nM in [11] and 0.738 nM in test [12].

B8: Ab31 (antibody, IgG4, V domains shown)
VH: EVQLVESGGGLVQPGGSLRLSCAASGFTFSSFSMDWVRQAPGKGLEWVSYISPDASTIYYADSVKGRFTISRDNAKNTLYLQMNSLRAEDTAVYYCARAVLDYGDMLDPWGQGTLVTVSS
VL: DIQMTQSPSSLSASVGDRVTITCQASQDITNYLNWYQQKPGKAPKLLIYDASNLETGVPSRFSGSGSGTDFTFTISSLQPEDIATYYCQQADNHPPWTFGGGTKVEIK
Consider B8, for which the Kd in test [1] is 0.019 nM; in test [2], 0.019 nM; in [3], 0.096 nM; in test [4], 0.014 nM; in test [5], 0.581 nM; in test [6], 0.236 nM. For the same molecule, the Kd was 0.41 nM in test [7] and 0.181 nM in test [8].

B9: Ab26 (antibody, IgG4, V domains shown)
VH: EVQLVESGGGLVQPGGSLRLSCAASGFTFSSFSMDWVRQAPGKGLEWVSYISPDASTIYYADSVKGRFTISRDNAKNTLYLQMNSLRAEDTAVYYCARGVLDYGDMLDPWGQGTLVTVSS
VL: DIQMTQSPSSLSASVGDRVTITCQASQDITNYLNWYQQKPGKAPKLLIYDASNLETGVPSRFSGSGSGTDFTFTISSLQPEDIATYYCQQADNHPPWTFGGGTKVEIK
Regarding B9, the Kd in test [1] amounted to 0.014 nM; in test [2], 0.028 nM; in [3], 0.13 nM; in test [4] it was 0.023 nM; in test [5], 0.625 nM; in test [6], 0.221 nM. In addition, the results for the dissociation constant (Kd) in test [7] and in [8] were 0.36 nM and 0.173 nM, respectively. Moreover, the “IC50, reporter cell assay” value in test [9] was 0.262 nM; in [10], 0.716 nM; in test [11], 0.713 nM; in test [12], 0.341 nM.

B10: Ab29 (antibody, IgG4, V domains shown)
VH: EVQLVESGGGLVQPGRSLRLSCAASGFTFSSFAMNWVRQAPGKGLEWVSYISPDASTIYYAGSVKGRFTISRDNAKNSLYLQMNSLRAEDTAVYYCVRAVLDYGDMLDPWGQGTLVTVSS
VL: DIQMTQSPSSLSASVGDRVTITCQASQDITNYLNWYQQKPGKAPKLLIYDASNLETGVPSRFSGSGSGTDFTFTISSLQPEDIATYYCQQADNHPPWTFGGGTKVEIK
Take B10: the Kd in [1] was 0.0055 nM; in test [2] it was 0.012 nM; in test [3], 0.043 nM; in [4] it was 0.011 nM; in test [5] it was 0.307 nM; in test [6], 0.189 nM. Moreover, the values for the Kd in test [7] and in test [8] were 0.302 nM and 0.121 nM, respectively. In addition, the “IC50, reporter cell assay” value in [9] was determined as 0.264 nM; in [10], 0.803 nM; in test [11] it was 0.471 nM; in test [12], 0.458 nM.

Source of the values: patent US20220064275A1 (SCHOLAR ROCK, published 2022).
